Laboratory results taken from publication PMC10392983 (2023).

Key:
[1] = target: p110γ-p101 complex (human | Sus scrofa (porcine), UniProt P48736 1-1102; O02696 1-877); test: BLI
[2] = target: p110γ-p84 complex (human | mouse, UniProt P48736 1-1102; Q3U6Q4 1-756); test: BLI
Chain of p110γ-p84 complex (P48736 whole entry, chain 1 of 2): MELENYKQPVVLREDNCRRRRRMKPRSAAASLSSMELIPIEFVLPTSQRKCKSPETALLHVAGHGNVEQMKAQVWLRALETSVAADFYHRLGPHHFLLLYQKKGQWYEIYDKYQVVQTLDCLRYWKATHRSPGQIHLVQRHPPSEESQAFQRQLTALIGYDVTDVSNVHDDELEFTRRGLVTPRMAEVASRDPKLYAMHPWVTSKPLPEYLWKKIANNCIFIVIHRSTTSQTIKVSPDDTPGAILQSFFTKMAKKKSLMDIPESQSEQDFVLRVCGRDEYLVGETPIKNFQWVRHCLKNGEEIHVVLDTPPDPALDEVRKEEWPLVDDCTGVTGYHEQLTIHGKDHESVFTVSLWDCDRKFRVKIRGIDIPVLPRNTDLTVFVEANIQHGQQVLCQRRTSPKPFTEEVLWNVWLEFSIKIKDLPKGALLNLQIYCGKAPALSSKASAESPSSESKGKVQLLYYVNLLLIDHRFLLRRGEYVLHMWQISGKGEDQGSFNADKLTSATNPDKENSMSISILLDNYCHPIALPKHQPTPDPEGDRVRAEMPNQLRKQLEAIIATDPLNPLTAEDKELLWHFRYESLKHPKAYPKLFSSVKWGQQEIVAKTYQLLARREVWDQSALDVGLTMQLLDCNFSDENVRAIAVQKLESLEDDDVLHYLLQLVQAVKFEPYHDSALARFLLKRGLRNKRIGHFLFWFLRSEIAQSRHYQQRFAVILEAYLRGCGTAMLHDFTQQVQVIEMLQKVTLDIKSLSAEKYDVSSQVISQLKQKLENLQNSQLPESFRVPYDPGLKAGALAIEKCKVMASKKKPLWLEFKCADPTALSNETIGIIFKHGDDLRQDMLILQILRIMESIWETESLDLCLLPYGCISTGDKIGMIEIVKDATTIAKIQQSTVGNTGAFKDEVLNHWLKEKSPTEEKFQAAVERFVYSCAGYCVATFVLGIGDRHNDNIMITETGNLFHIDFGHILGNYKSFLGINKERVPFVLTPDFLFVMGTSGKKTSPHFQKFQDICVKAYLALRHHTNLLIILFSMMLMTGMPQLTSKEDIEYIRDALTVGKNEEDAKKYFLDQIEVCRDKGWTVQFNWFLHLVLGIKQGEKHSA
Chain of p110γ-p84 complex (Q3U6Q4 whole entry, chain 2 of 2): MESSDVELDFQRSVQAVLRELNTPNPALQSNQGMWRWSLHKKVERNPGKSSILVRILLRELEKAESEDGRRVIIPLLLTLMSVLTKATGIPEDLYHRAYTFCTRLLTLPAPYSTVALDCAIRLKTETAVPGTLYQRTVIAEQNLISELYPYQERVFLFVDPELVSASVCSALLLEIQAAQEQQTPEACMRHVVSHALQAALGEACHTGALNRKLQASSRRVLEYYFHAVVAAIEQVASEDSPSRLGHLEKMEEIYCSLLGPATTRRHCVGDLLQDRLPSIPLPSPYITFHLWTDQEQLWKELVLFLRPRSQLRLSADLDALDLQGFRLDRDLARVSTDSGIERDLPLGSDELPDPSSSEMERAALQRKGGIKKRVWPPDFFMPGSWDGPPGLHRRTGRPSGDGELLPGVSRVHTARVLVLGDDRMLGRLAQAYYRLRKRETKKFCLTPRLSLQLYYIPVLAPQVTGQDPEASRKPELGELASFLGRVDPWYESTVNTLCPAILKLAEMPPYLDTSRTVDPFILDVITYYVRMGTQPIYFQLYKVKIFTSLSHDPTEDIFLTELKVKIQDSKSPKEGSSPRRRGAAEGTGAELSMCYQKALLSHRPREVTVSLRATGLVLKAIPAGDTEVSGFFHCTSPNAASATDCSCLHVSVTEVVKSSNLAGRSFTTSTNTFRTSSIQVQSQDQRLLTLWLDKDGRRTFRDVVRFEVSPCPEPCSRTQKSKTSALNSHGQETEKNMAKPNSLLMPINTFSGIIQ

Chain of p110γ-p101 complex (P48736 whole entry, chain 1 of 2): as the sequence (P48736 whole entry, chain 1 of 2) above
Chain of p110γ-p101 complex (O02696 whole entry, chain 2 of 2): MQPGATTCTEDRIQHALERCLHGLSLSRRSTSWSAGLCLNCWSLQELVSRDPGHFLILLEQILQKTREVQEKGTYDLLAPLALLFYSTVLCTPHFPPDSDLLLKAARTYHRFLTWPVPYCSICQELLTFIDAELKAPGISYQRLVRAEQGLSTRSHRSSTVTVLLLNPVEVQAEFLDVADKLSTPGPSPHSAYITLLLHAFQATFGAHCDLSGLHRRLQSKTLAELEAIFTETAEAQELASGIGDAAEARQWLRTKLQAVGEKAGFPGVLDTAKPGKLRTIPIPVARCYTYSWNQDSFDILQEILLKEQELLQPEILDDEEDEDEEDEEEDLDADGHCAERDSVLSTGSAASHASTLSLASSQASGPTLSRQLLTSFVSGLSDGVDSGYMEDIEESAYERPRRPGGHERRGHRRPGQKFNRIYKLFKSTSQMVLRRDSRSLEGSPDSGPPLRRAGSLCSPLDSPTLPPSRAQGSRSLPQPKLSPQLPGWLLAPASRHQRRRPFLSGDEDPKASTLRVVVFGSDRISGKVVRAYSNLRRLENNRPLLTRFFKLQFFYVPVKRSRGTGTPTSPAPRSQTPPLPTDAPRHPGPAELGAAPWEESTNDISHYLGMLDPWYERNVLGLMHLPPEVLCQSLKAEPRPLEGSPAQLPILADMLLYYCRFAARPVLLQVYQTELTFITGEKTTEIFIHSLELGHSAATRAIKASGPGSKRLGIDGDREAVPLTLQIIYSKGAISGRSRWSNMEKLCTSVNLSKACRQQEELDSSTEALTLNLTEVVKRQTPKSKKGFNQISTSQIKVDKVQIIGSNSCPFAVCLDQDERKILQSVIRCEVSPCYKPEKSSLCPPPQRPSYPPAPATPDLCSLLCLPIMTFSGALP

Kd [1]: 3.1 nM
Kd [2]: 3 nM
B1: Nanobody NB7-PIK3CG (VHH)
VHH: QVQLVESGGGLVQPGGSLRLSCAASGSIFSINAMGWYRQAPGKQRELVAHITSGGSTNYADSVKGRFTISRDNAKNTVYLQMNSLKPEDTAVYYCNEAGDPFLGSTWNGPPAFGSWGQGTQVTVSS
